Results reported in IntAct's records for PubMed 18688255.

B1: Cleavage and polyadenylation specificity factor subunit 2 (Homo sapiens), Q9P2I0 (parent)
chain: MTSIIKLTTLSGVQEESALCYLLQVDEFRFLLDCGWDEHFSMDIIDSLRKHVHQIDAVLLSHPDPLHLGALPYAVGKLGLNCAIYATIPVYKMGQMFMYDLYQSRHNTEDFTLFTLDDVDAAFDKIQQLKFSQIVNLKGKGHGLSITPLPAGHMIGGTIWKIVKDGEEEIVYAVDFNHKREIHLNGCSLEMLSRPSLLITDSFNATYVQPRRKQRDEQLLTNVLETLRGDGNVLIAVDTAGRVLELAQLLDQIWRTKDAGLGVYSLALLNNVSYNVVEFSKSQVEWMSDKLMRCFEDKRNNPFQFRHLSLCHGLSDLARVPSPKVVLASQPDLECGFSRDLFIQWCQDPKNSIILTYRTTPGTLARFLIDNPSEKITEIELRKRVKLEGKELEEYLEKEKLKKEAAKKLEQSKEADIDSSDESDIEEDIDQPSAHKTKHDLMMKGEGSRKGSFFKQAKKSYPMFPAPEERIKWDEYGEIIKPEDFLVPELQATEEEKSKLESGLTNGDEPMDQDLSDVPTKCISTTESIEIKARVTYIDYEGRSDGDSIKKIINQMKPRQLIIVHGPPEASQDLAECCRAFGGKDIKVYMPKLHETVDATSETHIYQVRLKDSLVSSLQFCKAKDAELAWIDGVLDMRVSKVDTGVILEEGELKDDGEDSEMQVEAPSDSSVIAQQKAMKSLFGDDEKETGEESEIIPTLEPLPPHEVPGHQSVFMNEPRLSDFKQVLLREGIQAEFVGGVLVCNNQVAVRRTETGRIGLEGCLCQDFYRIRDLLYEQYAIV
partner: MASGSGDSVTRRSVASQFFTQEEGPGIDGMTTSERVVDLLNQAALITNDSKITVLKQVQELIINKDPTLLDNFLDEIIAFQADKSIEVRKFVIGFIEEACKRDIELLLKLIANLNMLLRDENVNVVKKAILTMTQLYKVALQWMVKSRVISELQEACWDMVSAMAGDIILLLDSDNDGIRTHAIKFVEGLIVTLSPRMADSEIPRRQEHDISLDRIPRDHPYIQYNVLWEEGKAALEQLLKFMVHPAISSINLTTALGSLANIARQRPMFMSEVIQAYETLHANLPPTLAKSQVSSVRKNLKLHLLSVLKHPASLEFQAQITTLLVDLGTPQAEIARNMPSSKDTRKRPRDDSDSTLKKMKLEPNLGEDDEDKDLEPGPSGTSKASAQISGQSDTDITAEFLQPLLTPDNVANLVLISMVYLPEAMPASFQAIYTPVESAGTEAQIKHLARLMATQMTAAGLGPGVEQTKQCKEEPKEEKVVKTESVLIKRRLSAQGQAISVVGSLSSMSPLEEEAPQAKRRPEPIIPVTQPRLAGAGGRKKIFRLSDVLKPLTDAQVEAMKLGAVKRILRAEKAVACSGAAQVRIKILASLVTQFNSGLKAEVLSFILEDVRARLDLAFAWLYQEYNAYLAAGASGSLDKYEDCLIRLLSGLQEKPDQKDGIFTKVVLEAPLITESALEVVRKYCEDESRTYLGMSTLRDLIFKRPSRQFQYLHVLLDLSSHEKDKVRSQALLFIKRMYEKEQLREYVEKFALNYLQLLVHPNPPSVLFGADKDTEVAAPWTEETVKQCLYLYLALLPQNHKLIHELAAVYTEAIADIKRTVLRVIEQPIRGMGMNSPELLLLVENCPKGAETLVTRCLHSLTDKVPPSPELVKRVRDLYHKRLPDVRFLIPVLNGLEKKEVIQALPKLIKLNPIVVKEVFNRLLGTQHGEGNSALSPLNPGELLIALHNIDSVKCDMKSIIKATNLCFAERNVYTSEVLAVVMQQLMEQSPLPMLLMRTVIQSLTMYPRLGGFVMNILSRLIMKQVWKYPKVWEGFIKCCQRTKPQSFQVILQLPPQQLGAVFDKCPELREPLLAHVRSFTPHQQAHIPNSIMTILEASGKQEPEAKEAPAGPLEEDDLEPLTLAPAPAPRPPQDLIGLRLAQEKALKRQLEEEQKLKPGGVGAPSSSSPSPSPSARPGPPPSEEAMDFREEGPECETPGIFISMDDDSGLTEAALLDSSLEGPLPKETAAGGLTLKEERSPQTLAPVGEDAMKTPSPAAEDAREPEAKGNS
B2: Cleavage and polyadenylation specificity factor subunit 2 (Homo sapiens), Q9P2I0 (parent)
chain: B1 chain
partner: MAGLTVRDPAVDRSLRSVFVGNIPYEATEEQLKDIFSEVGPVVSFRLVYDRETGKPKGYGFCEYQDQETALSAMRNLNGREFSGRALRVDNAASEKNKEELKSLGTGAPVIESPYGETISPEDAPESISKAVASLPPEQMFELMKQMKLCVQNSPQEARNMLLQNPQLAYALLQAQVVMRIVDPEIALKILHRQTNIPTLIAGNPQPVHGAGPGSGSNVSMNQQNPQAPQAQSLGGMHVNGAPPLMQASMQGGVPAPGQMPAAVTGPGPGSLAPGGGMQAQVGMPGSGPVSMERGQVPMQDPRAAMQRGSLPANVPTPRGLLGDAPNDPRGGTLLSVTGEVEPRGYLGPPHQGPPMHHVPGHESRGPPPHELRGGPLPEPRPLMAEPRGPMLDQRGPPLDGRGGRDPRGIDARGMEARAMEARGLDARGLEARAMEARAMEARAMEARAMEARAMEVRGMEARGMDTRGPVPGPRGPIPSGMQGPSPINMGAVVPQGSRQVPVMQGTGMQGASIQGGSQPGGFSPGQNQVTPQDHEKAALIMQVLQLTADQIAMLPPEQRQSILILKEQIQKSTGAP

Variants of: B1
Conditions: with sympk_human SYMPK

Variant | effect of a mutation on the interaction
H67A | decreasing interaction

Variants of: B2
Conditions: with cstf2_human CSTF2, P33240

Variant | effect of a mutation on the interaction
R543A | disrupting interaction
